# B1: TPR t1 (parent)
# chain: GACCAAUCUGCCCUCAGAGCUCGAGAACAUCUUCGGAUGCAGAGGAGGCAGGCUUCGGUGGCGCGAUAGCGCCAACGUCCUCAACCUCCAAUGCAUCCCACCACAUGAUGAUGCCUGAAGAGCCUUGGUUUUUUG
# Variants of: B1
# Assay: polymerase ribozyme fitness, log enrichment relative to wild type (log ratio); higher = more active; in vitro selection for triplet polymerase activity
# Method in brief: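 One round of in vitro selection, in triplicate, was applied to PCR-built, transcribed mutant libraries of each subunit of a heterodimeric triplet polymerase ribozyme. The steps were annealing with a biotinylated primer, partner subunit and triplets, incubation frozen at −7 °C, gel excision of extended constructs, streptavidin-bead capture and RT-PCR. Fitness is the logarithm, base 2, of genotype enrichment over wild-type enrichment from inverse-variance-weighted replicate averages of Illumina-sequenced inputs and outputs, keeping genotypes with ≥10 input reads and ≥1 read per output.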
row,Variant,polymerase ribozyme fitness (log ratio)
1,C40A A41U G57C C104U C114U,-3.33
2,G39A G60C G113C C115A,-4.37
3,G39A C56U C85U A111U,-3.84
4,G39C C89U C115G C123A,-4.39
5,G39A C72G G113A,-2.17
6,G39A G63C C72A,-4.54
7,G39A C49A G122A C123G,0.869
8,G39A C49U G57A A84U C97U G120C C124U G128U U132A,-2.74
9,G39C G69A C115U G120A,-6.08
10,G39A G44A C62G U78C,-6.69
11,G39U C56A A84C G113U,-4.13
12,G39U C64U,-0.207
13,C40A C72A U81A A119U,-3.46
14,G39U G45U C73G,-2.79
15,G39A A84U,-1.22
16,G39A G44A G77A,-2.46
17,G39A G51A,-2.96
18,U38G U55G A121C,1.28
19,G39U U92A G110U U132A,-5.12
20,C40A A90C G93U,-1.13
21,G39U G117U A118C,-4.29
22,G39U G60A U78C G127U,-2.06
23,G39C C114U,-1.75
24,G39U G52U C70U,-2.08

row,Variant,polymerase ribozyme fitness (log ratio)
1,G39C U54A,-0.125
2,G39C G63C,-1.54
3,G39C G42U G47C,-3.36
4,G39U C62U C115G,-1.99
5,G39U C114U G120A G127C,-2.98
6,U38G G69A U112A,-4.05
7,G39U G69U C73A C124U,0.671
8,G39C G48U G57C,-1.92
9,G39U G60C,-0.892
10,G39U G61A C85U,-0.878
11,G39U C40A A43G C56G C104U U130C,-4.61
12,U38C G48U A68G G122A C123U,-3.71
13,G39U U78C U96A,-4.33
14,G39C G127C,-1.46
15,U38G G52U,-2.27
16,U38C G45A U54A A83C G120U,-0.856
17,G39C A50U G61A,-1.4
18,G39U A111C C124A,0.34
19,G39A G113C,-2.69
20,U38G G47C C114A,-5.64
21,G39C G61C A83G,-3.89
22,G39A G61U,-0.116
23,G39A G57U C80A A121C,0.47
24,G39C A66C,-1.94

row,Variant,polymerase ribozyme fitness (log ratio)
1,G39U A46G G63A C115G,-1.83
2,G39U G127C,-1.28
3,G39U C98U,-1.66
4,U38G A83G,-1.98
5,G39U C40G U106A U109A G120C,-5.48
6,U38G C49U C80G,-4.88
7,U38G C56U U81A U131C,-2.23
8,G39A G110A,-1.31
9,G39A G44A U78C,-1.89
10,G39A G51U A83G A95C C124A,-2.8
11,G39U U87C,-0.0295
12,G39U G77C,-1.76
13,G39U C76A U125G,-2.02
14,G39A A66U C123U,-0.175
15,G39A G48A C73A A100C G120A,-0.862
16,C40A A46U C114A,-4.55
17,G39U C62A C86A,-5.05
18,G39U G47C G57U A84C,-3.89
19,C40A C56U U87A,-1.61
20,G39C G52A,-1.32
21,G39C G120U,-1.35
22,G39U A84C G122A C123A C124A,0.979
23,G39C C70U U112C,1.16
24,U38G U87A A95C,-1.01

row,Variant,polymerase ribozyme fitness (log ratio)
1,G39U G52A G63U,-2.37
2,G39A G42U C72A,-1.57
3,G39U G51A,-3.64
4,C40A C70A,-2.89
5,G39A G42A,-2.67
6,U38G U78G,-0.583
7,G39U A41U A95C G117U,-4.57
8,G39U A105C,-3.64
9,G39A U112A,0.854
10,C40A A50U A95C,-3.28
11,G39U A95U,-1.27
12,U38G C79G,-2.67
13,G39A A50G C79A,-2.95
14,G39U A41U C104U C123A,-2.95
15,C40A C56U,-0.58
16,G39A C79A C114G A121C,-4.29
17,G39U U92C C115U A119U,-3.57
18,U38G G39U U54G G69U U87A G113C,-4.25
19,C40A C53U G63A,-2.24
20,G39U G63U,-1.63
21,G39A U54A A83U U92G,-4.73
22,G39A C64U,0.0887
23,C40A A43U,-2.77
24,G39A C49U U78C,-1.72

row,Variant,polymerase ribozyme fitness (log ratio)
1,G39A C40G,-1.68
2,G39U C80U C101A A111U,-5.03
3,G39U G71U,-1.16
4,G39A G71U A84U,-0.797
5,U38C G71C C82A A83U A90G,-2.39
6,U38G A91C,-2.88
7,C40A C72A A100C U132C,-2.7
8,C40A A41U A43U G44C,-3.15
9,C40A C56G G61A,-4.03
10,G39A G113C C124G,-1.58
11,G39U C62U C99U,-5.08
12,G39A G48C A50U C94U C114G,-4.57
13,G39A G63A,-1
14,G39A A83U,-0.65
15,G39C G71C C86U,-2.13
16,U38G C49A C73U C86U U109G U126A,-5.53
17,G39A C64U C124A,1.06
18,G39A C40A G45U,-4.88
19,G39U C85A A90G A119U C123G U125G,-1.21
20,G39A G51A C64U U78C,-3.91
21,G39U A84U,-1.03
22,G39A G93A,-2.02
23,G39A G61C C72U G117A,-1.82
24,U38G G44A G63C U96C,-2.8

row,Variant,polymerase ribozyme fitness (log ratio)
1,G39A C72A A91U C94A,-2.84
2,G39A G71A C82U U87C U132C,-1.47
3,G39U C73U,-1.52
4,G39A C70G,-3.16
5,G39A A95G C115A,-0.556
6,U38G U54A,-0.658
7,U38G U54G,-0.407
8,G39U G122A,-1.25
9,G39U G93A C123A,-1.36
10,G39C U54A G58U C114A,-2.27
11,G39A G69C C124U,-0.485
12,C40A A90G C123U,0.623
13,G39A G69U U96A C104A G113A U126C,-3.63
14,U38G G61U,-0.532
15,G39U G117U,-3.23
16,G39C A41U G60A,-2.76
17,U38C U54A G77A U96A G120A,-4.19
18,G39C G110A,-1.82
19,U38C G44U A91U G120U,-2.19
20,G39U C56G C72G U112C C124U,-1.3
21,G39C C49G G77U C94A C98G C102U C123A U131A,-5.44
22,C40A C56A C73U A84C,-2.23
23,G39U C53G U116C,-2.62
24,C40A C49U,-2.52

row,Variant,polymerase ribozyme fitness (log ratio)
1,G39U A46G C115G,-3.39
2,G39A G52A C72U C85U A95C G113U,-5.94
3,G39C C56G,-1.53
4,U38C G71A,-1.37
5,C40A A43C G120C U130A,-2.63
6,G39U A41U,-2.97
7,U38C G44U A111G U133G,-1.11
8,G39U C86U,-1.64
9,G39U C53A G63U U126A,-5.66
10,U38G G61C U96G G122A,-4.11
11,U38G G52A C62U C114A,-3.2
12,U38G U92A U109G C114A G122U,-6.12
13,G39A U55A G77C A84C,-2.23
14,G39A C72G,-0.976
15,C40A C70U C124U,-0.171
16,G39U C86A U106A,-2.01
17,U38G C88U,-0.426
18,G39U C70A,-2.96
19,G39U G52C C53A A83U,-3.01
20,G39U U92C,-1.97
21,G39C G69C,-2.22
22,G39C G48U C73A A100U,-2.09
23,G39A G51U A83G A95C,-3.53
